We go through 1 molecule from US20250136709A1 (DEVELOPMENT CENTER FOR BIOTECHNOLOGY, published 2025).

Test [1] concerns the target mCD73hF1 (mouse; human) (UniProt Q61503). The test can be described thus: ELISA, antibody titrated; panel mCD73 hF1. Background: ELISA stands for enzyme-linked immunosorbent assay.
A further test addresses mCD73hF2 (mouse; human) (UniProt Q61503). The test can be described thus: ELISA, antibody titrated; panel mCD73 hF2.
Test [2] has as its target T1, human CD73 (human, UniProt P21589 27-549).
T1 construct: the antigen of the Biacore assay is only called human CD73 antigen; also called human CD73 antigen; Recombinant Human CD73-6xHis
T1 sequence: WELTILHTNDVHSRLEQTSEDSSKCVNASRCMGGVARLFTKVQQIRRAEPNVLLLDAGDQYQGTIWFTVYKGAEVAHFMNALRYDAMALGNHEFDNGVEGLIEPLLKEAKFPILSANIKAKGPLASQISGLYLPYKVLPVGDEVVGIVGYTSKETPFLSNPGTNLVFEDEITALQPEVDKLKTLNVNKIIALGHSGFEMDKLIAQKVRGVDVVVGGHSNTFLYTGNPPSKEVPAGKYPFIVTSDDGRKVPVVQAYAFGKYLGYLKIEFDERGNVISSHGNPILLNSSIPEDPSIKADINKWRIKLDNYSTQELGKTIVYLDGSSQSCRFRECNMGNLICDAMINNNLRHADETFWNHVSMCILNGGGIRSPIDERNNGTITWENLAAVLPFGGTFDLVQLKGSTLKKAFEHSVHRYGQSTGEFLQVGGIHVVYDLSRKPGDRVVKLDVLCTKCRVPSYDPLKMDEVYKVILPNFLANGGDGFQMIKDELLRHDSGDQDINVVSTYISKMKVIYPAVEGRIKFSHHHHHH
The test can be described thus: Biacore SPR.

The target in a further test is T2, mCD73hF1-K206A-N211G (mouse; human, UniProt Q61503 29-270; Q61503 307-551).
T2 chain: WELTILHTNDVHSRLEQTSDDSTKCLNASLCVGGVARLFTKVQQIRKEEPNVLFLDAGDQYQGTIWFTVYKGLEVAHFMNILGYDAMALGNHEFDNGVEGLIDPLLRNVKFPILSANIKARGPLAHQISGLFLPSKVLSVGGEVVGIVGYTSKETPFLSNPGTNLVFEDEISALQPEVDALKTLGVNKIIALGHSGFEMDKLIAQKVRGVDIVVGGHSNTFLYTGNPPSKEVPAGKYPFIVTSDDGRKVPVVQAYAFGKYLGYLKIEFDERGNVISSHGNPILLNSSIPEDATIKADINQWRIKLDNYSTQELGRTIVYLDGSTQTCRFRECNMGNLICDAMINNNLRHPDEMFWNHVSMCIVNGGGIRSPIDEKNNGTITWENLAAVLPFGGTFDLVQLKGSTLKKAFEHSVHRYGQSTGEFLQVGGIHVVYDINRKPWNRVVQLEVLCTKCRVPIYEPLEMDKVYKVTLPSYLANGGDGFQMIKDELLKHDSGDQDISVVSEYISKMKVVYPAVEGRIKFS
The test can be described thus: ELISA, antibody titrated; panel mCD73 hF1 K206A N211G.

The next test addresses T3, mCD73hF4 (human; mouse, UniProt Q61503 307-551, limits assumed).
T3 construct: Mouse-human domain swapping protein, expressed in F293 cells
T3 sequence: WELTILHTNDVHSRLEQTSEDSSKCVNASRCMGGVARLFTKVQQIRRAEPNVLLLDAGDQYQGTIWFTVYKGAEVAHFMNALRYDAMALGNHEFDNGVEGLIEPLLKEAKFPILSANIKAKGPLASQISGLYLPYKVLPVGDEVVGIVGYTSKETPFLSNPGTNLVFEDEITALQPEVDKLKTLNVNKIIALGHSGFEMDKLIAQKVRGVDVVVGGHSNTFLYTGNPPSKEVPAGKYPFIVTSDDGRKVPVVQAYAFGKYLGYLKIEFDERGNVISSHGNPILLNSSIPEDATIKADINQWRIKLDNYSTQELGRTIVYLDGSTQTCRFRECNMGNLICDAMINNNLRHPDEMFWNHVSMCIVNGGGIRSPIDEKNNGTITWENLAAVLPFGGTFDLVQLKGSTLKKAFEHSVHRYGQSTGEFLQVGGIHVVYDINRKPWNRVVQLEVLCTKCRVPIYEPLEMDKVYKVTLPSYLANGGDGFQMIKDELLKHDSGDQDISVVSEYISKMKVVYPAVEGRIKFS
The test can be described thus: ELISA, antibody titrated; panel mCD73 hF4.

The target in test [3] is mCD73hF1-R297K (mouse; human) (UniProt Q61503). The test can be described thus: ELISA.
Test [4] concerns the target mouse CD73-D296E-K297R (mouse) (UniProt Q61503). The test can be described thus: ELISA.
Test [5] has as its target mCD73hF1 (mouse; human) (UniProt Q61503). Description: ELISA, antibody titrated; right panel mCD73 hF1.
Test [6] addresses T1, human CD73. The test can be described thus: Biacore SPR. The source holds these as a separate data set.
In test [7] the target is T4, human CD73 on cells (MDA-MB-231, Calu-1, KLM-1, human CD4+ T-cells) (human, UniProt P21589 27-549).
T4 sequence: T1 sequence
The test can be described thus: cell-based or functional assay.

Test [8] deals with mouse CD73-D296E-K297R (mouse) (UniProt Q61503). Description: ELISA, 10H5 titrated on the mutant protein.
The target in test [9] is mCD73hF1-S269A (mouse; human) (UniProt Q61503). Description: ELISA, 10H5 titrated on the mutant protein.
For another test, the target named is mCD73hF3 (mouse; human) (UniProt Q61503). The test can be described thus: ELISA, antibody titrated; panel mCD73 hF3.

B1: 10H5 antibody (antibody, V domains shown)
VH: QVKLQQSGAELVKPGASVKISCKASGYVFSSYWINWVKQRPGKGLEWIGQIYPGDGNTNYNRNFKGKATLTADKSSSTAYMQLSSLTSEDSAVYFCAGFADWGQGTTVTVSS
VL: DIELTQSPSSLSASLGERVSLTCRASQDIGDSLIWLQQEPDGTIKRLIYATSSLDSGVPKRFSGSRSGTSYSLTISSVEAEDAATYYCQQYSGYPLTFGSGTKLEIK
notes: Mouse scFv-derived variable domains put into an expression vector with CH and CL chains (full-length chimeric antibody); also called 10H5 chimeric; 10H5 MM
As for B1, the 50% effective concentration (EC50 (read off the curve)) (as a rule, the concentration that produces a half-maximal response) in the test with mCD73hF1 (mouse; human) [1] is 0.3 nM; with mCD73hF2 (mouse; human) it was 0.2 nM; in the test with mCD73hF1-K206A-N211G it was ~0.2 nM; with mCD73hF4 it was ~0.2 nM; with mCD73hF1 (mouse; human) [5] it was 0.3 nM; in test [8] it was 0.2 nM. The EC50 (read off the curve) in test [9] came out at 0.5 nM; with mCD73hF3 (mouse; human) it was 0.2 nM. Moreover, the Kd (as a rule, the constant that tells how readily two partners part at equilibrium) with human CD73 [2] worked out at 0.683 nM; in test [4], 0.098 nM. In test [3], this molecule had a binding affinity relative to that to mCD73hF1 of 0.1 fold. Moreover, the koff (usually the first-order rate constant of dissociation) with human CD73 [6] amounted to 5.78e-05 s⁻¹. In addition, the on-rate (kon) (in general, the second-order rate constant of association) with human CD73 [6] came out at 84600 M⁻¹ s⁻¹. In addition, the “AMP concentration in supernatant by LC/MS, MDA-MB-231 cells, 400 µM AMP, 10 nM antibody, 6 hours” value in [7] was 347 µM. Moreover, the “AMP concentration in supernatant by LC/MS, MDA-MB-231 cells, 400 µM AMP, 10 nM antibody, 24 hours” value in test [7] stood at 290 µM. Further, the “AMP consumption, Calu-1 cells, 10 nM antibody, 24 hrs” value in test [7] was < 20%. Besides, in [7], the “AMP consumption, MDA-MB-231 cells, 10 nM antibody, 6 hr” value was < 10%. Further, the “AMP consumption, MDA-MB-231 cells, 10 nM antibody, 24 h” value in test [7] was < 50%.
